Source: patent publication US9708383 (Novo Nordisk, dated 2017)
*1 amine or outer side, *2 acyl side, *3 side chain or, on linkers, in order; H or OH if unused. Where no end group is shown, it is not given here. Side-chain parts run from the residue outwards. [ ]: non-standard residue; d: D form. The star is where a group is joined. Decanoyl(10-(4-HOOC-PhO)) = O=C(O)c1ccc(OCCCCCCCCCC(=O)*)cc1; C16 diacid = O=C(O)CCCCCCCCCCCCCCC(=O)*; γGlu = O=C(O)[C@H](CCC(=O)[*:2])N[*:1]; Desaminohistidyl = O=C(CCc1c[nH]cn1)*; Hexanoyl(6-Ph) = O=C(CCCCCc1ccccc1)*; C12 diacid = O=C(O)CCCCCCCCCCC(=O)*; 13‑carboxytridecanoyl = C14 diacid; 12Ado = NCCCCCCCCCCCC(=O)O; AEEA = NCCOCCOCC(=O)O; Aib = CC(C)(N)C(=O)O; Aoc = NCCCCCCCC(=O)O

B1: GLP-1 derivative of Example 132: [Aib8,Lys8,Glu22,Gln34]-GLP-1-(7-37)-peptide amide (peptide)
peptide: H[Aib]EGTFTSDVSK([AEEA-AEEA-γGlu-Decanoyl(10-(4-HOOC-PhO))])YLEEQAAK([AEEA-AEEA-γGlu-Decanoyl(10-(4-HOOC-PhO))])EFIAWLVQGRG-NH2
modifications: N-terminus assumed
SMILES: CC[C@H](C)[C@H](NC(=O)[C@H](Cc1ccccc1)NC(=O)[C@H](CCC(=O)O)NC(=O)[C@H](CCCCNC(=O)COCCOCCNC(=O)COCCOCCNC(=O)CC[C@H](NC(=O)CCCCCCCCCOc1ccc(C(=O)O)cc1)C(=O)O)NC(=O)[C@H](C)NC(=O)[C@H](C)NC(=O)[C@H](CCC(N)=O)NC(=O)[C@H](CCC(=O)O)NC(=O)[C@H](CCC(=O)O)NC(=O)[C@H](CC(C)C)NC(=O)[C@H](Cc1ccc(O)cc1)NC(=O)[C@H](CCCCNC(=O)COCCOCCNC(=O)COCCOCCNC(=O)CC[C@H](NC(=O)CCCCCCCCCOc1ccc(C(=O)O)cc1)C(=O)O)NC(=O)[C@H](CO)NC(=O)[C@@H](NC(=O)[C@H](CC(=O)O)NC(=O)[C@H](CO)NC(=O)[C@@H](NC(=O)[C@H](Cc1ccccc1)NC(=O)[C@@H](NC(=O)CNC(=O)[C@H](CCC(=O)O)NC(=O)C(C)(C)NC(=O)[C@@H](N)Cc1c[nH]cn1)[C@@H](C)O)[C@@H](C)O)C(C)C)C(=O)N[C@@H](C)C(=O)N[C@@H](Cc1c[nH]c2ccccc12)C(=O)N[C@@H](CC(C)C)C(=O)N[C@H](C(=O)N[C@@H](CCC(N)=O)C(=O)NCC(=O)N[C@@H](CCCNC(=N)N)C(=O)NCC(N)=O)C(C)C
notes: Name prints Lys8, evidently Lys18

How the values were obtained:
human GLP-1 receptor [1] = target: T1, human GLP-1 receptor (human, UniProt P43220 24-463); assay: SPA, 2.0% vs 0.005% HSA
T1 construct: whole, on cells; Used as purified membranes of the transfected hamster cells, not whole cells; also called hGLP-1

human GLP-1 receptor [2] = target: T1, human GLP-1 receptor; assay: SPA, displacement of 125I-GLP-1(7-36)NH2, 0.005% HSA

Binder | ratio IC50 high HSA/IC50 low HSA (human GLP-1 receptor [1]) | IC50 (human GLP-1 receptor [2]) [nM]
H[Aib]EGTFTSDVSK([AEEA-AEEA-γGlu-C12 diacid])YLEEQAVREFIAK([AEEA-AEEA-γGlu-C12 diacid])LVG [GLP-1 derivative of Example 8: [Aib8,Lys18,Glu22,Val25,Arg26,Lys31,Gly34]-GLP-1-(7-34)-peptide] | > 1 | < 1000
H[Aib]EGTFTSDVSK([AEEA-AEEA-γGlu-C16 diacid])YLEEQAAK([AEEA-AEEA-γGlu-C16 diacid])EFIAWLVQGRG [GLP-1 derivative of Example 143: [Aib8,Lys18,Glu22,Gln34]-GLP-1-(7-37)-peptide] | > 1 | < 1000
H[Aib]EGTFTSDVSK([AEEA-AEEA-γGlu-4‑(4-nitrophenyl)butanoyl])YLEEQAAK([AEEA-AEEA-γGlu-4‑(4-nitrophenyl)butanoyl])EFIAWLVQGRG [GLP-1 derivative of Example 122: [Aib8,Lys18,Glu22,Gln34]-GLP-1-(7-37)-peptide] | > 1 | < 1000
[Desaminohistidyl][Aib]EGTFTSDVSK([AEEA-AEEA-γGlu-13‑carboxytridecanoyl])YLEEQAVREFIAK([AEEA-AEEA-γGlu-13‑carboxytridecanoyl])LVG [GLP-1 derivative of Example 21: [Imp7,Aib8,Lys18,Glu22,Val25,Arg26,Lys31,Gly34]-GLP-1-(7-34)-peptide] | > 1 | < 1000
[Desaminohistidyl]AEGTFTSDVSK([AEEA-AEEA-γGlu-13‑carboxytridecanoyl])YLEEQAVREFIAK([AEEA-AEEA-γGlu-13‑carboxytridecanoyl])LVG [GLP-1 derivative of Example 12: [Imp7,Lys18,Glu22,Val25,Arg26,Lys31,Gly34]-GLP-1-(7-34)-peptide] | > 1 | < 1000
H[Aib]EGTFTSDVSK([AEEA-γGlu-13‑carboxytridecanoyl])YLEEQAVREFIAK([AEEA-γGlu-13‑carboxytridecanoyl])LVG [GLP-1 derivative of Example 20: [Aib8,Lys18,Glu22,Val25,Arg26,Lys31,Gly34]-GLP-1-(7-34)-peptide] | > 1 | < 1000
H[Aib]EGTFTSDVSK([AEEA-AEEA-γGlu-12Ado-γGlu-2‑phenylacetyl])YLEEQAAK([AEEA-AEEA-γGlu-12Ado-γGlu-2‑phenylacetyl])EFIAWLVQGRG [GLP-1 derivative of Example 128: [Aib8,Lys18,Glu22,Gln34]-GLP-1-(7-37)-peptide] | > 1 | < 1000
H[Aib]EGTFTSDVSK([AEEA-AEEA-γGlu-Decanoyl(10-(4-HOOC-PhO))])YLEEQAVREFIAK([AEEA-AEEA-γGlu-Decanoyl(10-(4-HOOC-PhO))])LVG [GLP-1 derivative of Example 19: [Aib8,Lys18,Glu22,Val25,Arg26,Lys31,Gly34]-GLP-1-(7-34)-peptide] | > 1 | < 1000
B1 | > 1 | < 1000
H[Aib]EGTFTSDVSK([AEEA-AEEA-γGlu-13‑carboxytridecanoyl])YLEEQAVREFIAK([AEEA-AEEA-γGlu-13‑carboxytridecanoyl])LVG [GLP-1 derivative of Example 5: [Aib8,Lys18,Glu22,Val25,Arg26,Lys31,Gly34]-GLP-1-(7-34)-peptide] | > 1 | < 1000
H[Aib]EGTFTSDVSK([AEEA-AEEA-γGlu-13‑carboxytridecanoyl])YLEEQAVRK([AEEA-AEEA-γGlu-13‑carboxytridecanoyl])FIAHLVG | > 1 | < 1000
H[Aib]EGTFTSDVSK([AEEA-AEEA-γGlu-C12 diacid])YLEEQAVHEFIAK([AEEA-AEEA-γGlu-C12 diacid])LVG [GLP-1 derivative of Example 27: [Aib8,Lys18,Glu22,Val25,His26,Lys31,Gly34]-GLP-1-(7-34)-peptide] | > 1 | < 1000
H[Aib]EGTFTSDVSK([AEEA-AEEA-γGlu-13‑carboxytridecanoyl])YLEERAVREFIAK([AEEA-AEEA-γGlu-13‑carboxytridecanoyl])LVG | > 1 | < 1000
H[Aib]EGTFTSDVSK([AEEA-AEEA-γGlu-13‑carboxytridecanoyl])YLEEQAVHEFIAK([AEEA-AEEA-γGlu-13‑carboxytridecanoyl])LVG [GLP-1 derivative of Example 7: [Aib8,Lys18,Glu22,Val25,His26,Lys31,Gly34]-GLP-1-(7-34)-peptide] | > 1 | < 1000
H[Aib]EGTFTSDVSK([AEEA-AEEA-γGlu-13‑carboxytridecanoyl])YLEEQAVRHFIAK([AEEA-AEEA-γGlu-13‑carboxytridecanoyl])LVG | > 1 | < 1000
H[Aib]EGTFTSDVSK([AEEA-AEEA-γGlu-13‑carboxytridecanoyl])YLEEQAAREFIAK([AEEA-AEEA-γGlu-13‑carboxytridecanoyl])LVG [GLP-1 derivative of Example 16: [Aib8,Lys18,Glu22,Arg26,Lys31,Gly34]-GLP-1-(7-34)-peptide] | > 1 | < 1000
H[Aib]EGTFTSDVSK([AEEA-AEEA-γGlu-C12 diacid])YLEEQAVRK([AEEA-AEEA-γGlu-C12 diacid])FIAHLVG | > 1 | < 1000
H[Aib]EGTFTSDVSK([AEEA-AEEA-γGlu-13‑carboxytridecanoyl])YLEEQAVREFIEK([AEEA-AEEA-γGlu-13‑carboxytridecanoyl])LVG [GLP-1 derivative of Example 6: [Aib8,Lys18,Glu22,Val25,Arg26,Glu30,Lys31,Gly34]-GLP-1-(7-34)-peptide] | > 1 | < 1000
H[Aib]EGTFTSDVSK([AEEA-AEEA-γGlu-Decanoyl(10-(4-HOOC-PhO))])YLEEQAAK([AEEA-AEEA-γGlu-Decanoyl(10-(4-HOOC-PhO))])EFIAWLVRG [GLP-1 derivative of Example 140: [Aib8,Lys18,Glu22,Arg34]-GLP-1-(7-35)-peptide] | > 1 | < 1000
H[Aib]EGTFTSDVSK([AEEA-AEEA-γGlu-Aoc-γGlu-Hexanoyl(6-Ph)])YLEEQAAK([AEEA-AEEA-γGlu-Aoc-γGlu-Hexanoyl(6-Ph)])EFIAWLVQGRG [GLP-1 derivative of Example 127: [Aib8,Lys18,Glu22,Gln34]-GLP-1-(7-37)-peptide] | > 1 | < 1000
[Desaminohistidyl]AEGTFTSDVSK([AEEA-AEEA-γGlu-C12 diacid])YLEEQAVREFIAK([AEEA-AEEA-γGlu-C12 diacid])LVG [GLP-1 derivative of Example 13: [Imp7,Lys18,Glu22,Val25,Arg26,Lys31,Gly34]-GLP-1-(7-34)-peptide] | > 1 | < 1000
H[Aib]EGTFTSDVSK([AEEA-AEEA-γGlu-C16 diacid])YLEEQAAK([AEEA-AEEA-γGlu-C16 diacid])EFIAWLVRG [GLP-1 derivative of Example 138: [Aib8,Lys18,Glu22,Arg34]-GLP-1-(7-35)-peptide] | > 1 | < 1000
H[Aib]EGTFTSDVSK([AEEA-AEEA-γGlu-13‑carboxytridecanoyl])YLEGQAAHEFIK([AEEA-AEEA-γGlu-13‑carboxytridecanoyl])WLVRG [GLP-1 derivative of Example 81: [Aib8,Lys18,His26,Lys30,Arg34]-GLP-1-(7-35)-peptide] | > 1 | < 1000
H[Aib]EGTFTSDVSK([AEEA-AEEA-γGlu-13‑carboxytridecanoyl])YLEEQAAREFIK([AEEA-AEEA-γGlu-13‑carboxytridecanoyl])WLVRG [GLP-1 derivative of Example 83: [Aib8,Lys18,Glu22,Arg26,Lys30,Arg34]-GLP-1-(7-35)-peptide] | > 1 | < 1000
[Desaminohistidyl]AEGTFTSDVSK([AEEA-AEEA-γGlu-Decanoyl(10-(4-HOOC-PhO))])YLEEQAAK([AEEA-AEEA-γGlu-Decanoyl(10-(4-HOOC-PhO))])EFIAWLVQGRG [GLP-1 derivative of Example 136: [Imp7,Lys18,Glu22,Gln34]-GLP-1-(7-37)-peptide] | > 1 | < 1000
[Desaminohistidyl]AEGTFTSDVSK([AEEA-AEEA-γGlu-Decanoyl(10-(4-HOOC-PhO))])YLEEQAAREFIAWLVRGRK([AEEA-AEEA-γGlu-Decanoyl(10-(4-HOOC-PhO))]) [GLP-1 derivative of Example 4: [Imp7,Lys18,Glu22,Arg26,Arg34,Lys37]-GLP-1-(7-37)-peptide] | > 1 | < 1000
[Desaminohistidyl]AEGTFTSDVSK([AEEA-AEEA-γGlu-C16 diacid])YLEEQAARK([AEEA-AEEA-γGlu-C16 diacid])FIAWLVQGRG [GLP-1 derivative of Example 147: [Imp7,Lys18,Glu22,Arg26,Lys27,Gln34]-GLP-1-(7-37)-peptide] | > 1 | < 1000
H[Aib]EGTFTSDVSK([AEEA-AEEA-γGlu-Hexanoyl(6-Ph)])YLEEQAAK([AEEA-AEEA-γGlu-Hexanoyl(6-Ph)])EFIAWLVQGRG [GLP-1 derivative of Example 123: [Aib8,Lys18,Glu22,Gln34]-GLP-1-(7-37)-peptide] | > 1 | < 1000
